B6: endogenous KIF11 (kinesin family member 11) (other)
chain: MASQPNSSAKKKEEKGKNIQVVVRCRPFNLAERKASAHSIVECDPVRKEVSVRTGGLADKSSRKTYTFDMVFGASTKQIDVYRSVVCPILDEVIMGYNCTIFAYGQTGTGKTFTMEGERSPNEEYTWEEDPLAGIIPRTLHQIFEKLTDNGTEFSVKVSLLEIYNEELFDLLNPSSDVSERLQMFDDPRNKRGVIIKGLEEITVHNKDEVYQILEKGAAKRTTAATLMNAYSSRSHSVFSVTIHMKETTIDGEELVKIGKLNLVDLAGSENIGRSGAVDKRAREAGNINQSLLTLGRVITALVERTPHVPYRESKLTRILQDSLGGRTRTSIIATISPASLNLEETLSTLEYAHRAKNILNKPEVNQKLTKKALIKEYTEEIERLKRDLAAAREKNGVYISEENFRVMSGKLTVQEEQIVELIEKIGAVEEELNRVTELFMDNKNELDQCKSDLQNKTQELETTQKHLQETKLQLVKEEYITSALESTEEKLHDAASKLLNTVEETTKDVSGLHSKLDRKKAVDQHNAEAQDIFGKNLNSLFNNMEELIKDGSSKQKAMLEVHKTLFGNLLSSSVSALDTITTVALGSLTSIPENVSTHVSQIFNMILKEQSLAAESKTVLQELINVLKTDLLSSLEMILSPTVVSILKINSQLKHIFKTSLTVADKIEDQKKELDGFLSILCNNLHELQENTICSLVESQKQCGNLTEDLKTIKQTHSQELCKLMNLWTERFCALEEKCENIQKPLSSVQENIQQKSKDIVNKMTFHSQKFCADSDGFSQELRNFNQEGTKLVEESVKHSDKLNGNLEKISQETEQRCESLNTRTVYFSEQWVSSLNEREQELHNLLEVVSQCCEASSSDITEKSDGRKAAHEKQHNIFLDQMTIDEDKLIAQNLELNETIKIGLTKLNCFLEQDLKLDIPTGTTPQRKSYLYPSTLVRTEPREHLLDQLKRKQPELLMMLNCSENNKEETIPDVDVEEAVLGQYTEEPLSQEPSVDAGVDCSSIGGVPFFQHKKSHGKDKENRGINTLERSKVEETTEHLVTKSRLPLRAQINL
notes: Endogenous protein in cell extracts; GenBank NM-004523 printed for the gene; also called EG5

In assay [1] the target is B6. As to the kind of experiment: immunoprecipitation from transfected A549 cells.
Assay [2] deals with B6. Kind of assay: immunoprecipitation from transfected LC319 cells.
Assay [3] concerns the target B6. Kind of assay: anti-Flag and anti-HA immunoprecipitation from transfected LC319 cells, silver stain, MALDI-TOF.
Description: Cells were extracted in IP-buffer (0.5% NP-40, 50 mM Tris-HCl, 150 mM NaCl, and protease inhibitor) for 30 min on ice. Extracts were centrifuged at 14,000 rpm for 15 min, and supernatants were subjected to immunoprecipitation using anti-Flag M2 agarose (Sigma-Aldrich) and anti-HA beads (Sigma-Aldrich) for 1-2 hours. The beads were washed six times with IP-buffer, and protein was eluted by boiling the beads in Laemmli sample buffer after removing the final wash fraction. The eluted protein was resolved by SDS-PAGE and stained with silver staining. A 125 kDa-band was extracted by gel extraction, and used for mass spectrometric sequencing using MALDI-TOF mass spectrometry.
Assay [4] deals with B6. As to the kind of experiment: reciprocal immunoprecipitation with anti-KOC1 and anti-KIF11 polyclonal antibodies, western blot. For orientation: Immunoblotting shows a protein as a band on a membrane.
The target in assay [5] is T1, EYFP-fused KIF11 (EYFP-KIF11) (human, UniProt P52732 1-1056).
T1 construct: Expressed in COS-7 cells; not shown: EYFP from pEYFP-N1 vector
T1 sequence: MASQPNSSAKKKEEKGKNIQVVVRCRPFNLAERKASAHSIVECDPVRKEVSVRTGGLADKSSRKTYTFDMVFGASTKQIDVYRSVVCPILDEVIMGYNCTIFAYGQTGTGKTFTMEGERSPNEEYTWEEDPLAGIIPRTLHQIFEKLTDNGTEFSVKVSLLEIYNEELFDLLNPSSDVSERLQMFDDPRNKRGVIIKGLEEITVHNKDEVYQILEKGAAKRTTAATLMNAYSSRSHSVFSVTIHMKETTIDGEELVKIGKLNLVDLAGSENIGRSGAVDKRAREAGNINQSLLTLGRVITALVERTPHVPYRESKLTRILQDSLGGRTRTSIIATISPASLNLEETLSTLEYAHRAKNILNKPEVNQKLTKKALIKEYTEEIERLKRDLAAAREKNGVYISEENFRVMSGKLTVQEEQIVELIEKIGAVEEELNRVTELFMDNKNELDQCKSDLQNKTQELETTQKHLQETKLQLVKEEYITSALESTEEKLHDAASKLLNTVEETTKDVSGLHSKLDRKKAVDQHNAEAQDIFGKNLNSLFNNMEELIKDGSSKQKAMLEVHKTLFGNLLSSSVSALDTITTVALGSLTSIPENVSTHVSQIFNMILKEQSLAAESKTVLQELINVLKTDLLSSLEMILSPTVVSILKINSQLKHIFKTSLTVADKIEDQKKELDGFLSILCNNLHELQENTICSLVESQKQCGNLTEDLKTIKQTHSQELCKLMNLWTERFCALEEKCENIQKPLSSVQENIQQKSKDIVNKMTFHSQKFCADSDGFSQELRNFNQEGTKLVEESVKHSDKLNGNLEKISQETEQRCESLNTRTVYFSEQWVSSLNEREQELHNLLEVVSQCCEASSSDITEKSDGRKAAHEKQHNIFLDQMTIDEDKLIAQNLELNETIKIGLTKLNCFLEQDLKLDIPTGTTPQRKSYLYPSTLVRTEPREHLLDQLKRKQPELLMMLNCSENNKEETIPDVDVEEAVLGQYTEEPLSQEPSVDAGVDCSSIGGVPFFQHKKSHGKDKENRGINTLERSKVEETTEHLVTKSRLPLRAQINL
As to the kind of experiment: live-cell fluorescence microscopy of co-transfected COS-7 cells (co-localised particles).

In assay [6] the target is dynactin 1 (DCTN1; p150, glued homolog, Drosophila), endogenous (human, UniProt Q14203 1-1278, limits assumed). As to the kind of experiment: immunoprecipitation with anti-KIF11 polyclonal and anti-DCTN1 monoclonal antibody; 150-kDa partner first identified by MALDI-TOF from LC319 lysate.
dynactin 1 (DCTN1; p150, glued homolog, Drosophila), endogenous, sequence (Q14203 whole entry): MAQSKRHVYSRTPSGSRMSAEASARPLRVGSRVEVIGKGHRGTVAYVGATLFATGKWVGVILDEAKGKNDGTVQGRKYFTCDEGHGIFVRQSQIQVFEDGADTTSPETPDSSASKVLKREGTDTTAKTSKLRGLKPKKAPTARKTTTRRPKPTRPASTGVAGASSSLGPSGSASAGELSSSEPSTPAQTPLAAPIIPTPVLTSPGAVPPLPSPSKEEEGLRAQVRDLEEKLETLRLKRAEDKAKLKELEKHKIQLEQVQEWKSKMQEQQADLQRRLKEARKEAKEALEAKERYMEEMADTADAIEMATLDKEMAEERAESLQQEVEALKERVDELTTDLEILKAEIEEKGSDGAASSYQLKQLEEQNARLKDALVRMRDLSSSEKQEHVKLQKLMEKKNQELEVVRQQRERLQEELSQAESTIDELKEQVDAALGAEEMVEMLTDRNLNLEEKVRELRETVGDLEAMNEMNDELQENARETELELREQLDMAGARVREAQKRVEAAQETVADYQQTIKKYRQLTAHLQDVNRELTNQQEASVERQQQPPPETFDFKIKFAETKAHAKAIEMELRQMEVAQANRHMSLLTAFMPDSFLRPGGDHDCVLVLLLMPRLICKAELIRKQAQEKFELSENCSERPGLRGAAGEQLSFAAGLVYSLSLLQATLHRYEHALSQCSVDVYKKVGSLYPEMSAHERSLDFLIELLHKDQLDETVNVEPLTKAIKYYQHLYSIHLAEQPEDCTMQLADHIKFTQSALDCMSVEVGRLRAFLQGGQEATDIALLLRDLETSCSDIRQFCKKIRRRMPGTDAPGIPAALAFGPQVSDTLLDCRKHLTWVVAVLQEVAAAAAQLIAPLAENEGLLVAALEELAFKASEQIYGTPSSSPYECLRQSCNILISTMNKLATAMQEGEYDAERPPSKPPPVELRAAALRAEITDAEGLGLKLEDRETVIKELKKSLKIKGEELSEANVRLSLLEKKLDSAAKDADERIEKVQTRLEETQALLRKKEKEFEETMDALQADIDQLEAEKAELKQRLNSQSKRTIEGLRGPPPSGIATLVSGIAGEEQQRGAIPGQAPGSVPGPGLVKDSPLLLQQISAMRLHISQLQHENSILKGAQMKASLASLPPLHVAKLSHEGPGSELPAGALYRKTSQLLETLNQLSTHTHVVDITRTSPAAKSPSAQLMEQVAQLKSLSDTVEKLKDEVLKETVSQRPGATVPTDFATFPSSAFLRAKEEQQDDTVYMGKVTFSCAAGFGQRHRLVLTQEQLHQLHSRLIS

From patent US20080050378A1 (ONCOTHERAPY SCIENCE, published 2008) come the findings set out here.

B1: KOC1DEL2 (KOC1 deletion mutant 2; 2xRRM+2xKH, N-terminal FLAG, C-terminal HA) (other)
chain: MNKLYIGNLSENAAPSDLESIFKDAKIPVSGPFLVKTGYAFVDCPDESWALKAIEALSGKIELHGKPIEVEHSVPKRQRIRKLQIRNIPPHLQWEVLDSLLVQYGVVESCEQVNTDSETAVVNVTYSSKDQARQALDKLNGFQLENFTLKVAYIPDEMAAQQNPLQQPRGRRGLGQRGSSRQGSPGSVSKQKPCDLPLRLLVPTQFVGAIIGKEGATIRNITKQTQSKIDVHRKENAGAAEKSITILSTPEGTSAACKSILEIMHKEAQDIKFTEEIPLKILAHNNFVGRLIGKEGRNLKKIEQDTDTKITISPLQELTLYNPERTITVKGNVETCAKAEEEIMKKIRESYENDIASMNLQAHLIPGLNLNALGLFPPTSGMPPPTSGPPSAMTPPYPQFEQSETE
notes: Lacks the C-terminal two KH domains; not shown: N-terminal FLAG tag; C-terminal HA tag
B1: the binding result in assay [1] is on record as “binds”.

B2: KOC1DEL3 (KOC1 deletion mutant 3; 2xRRM without KH, N-terminal FLAG, C-terminal HA) (other)
chain: MNKLYIGNLSENAAPSDLESIFKDAKIPVSGPFLVKTGYAFVDCPDESWALKAIEALSGKIELHGKPIEVEHSVPKRQRIRKLQIRNIPPHLQWEVLDSLLVQYGVVESCEQVNTDSETAVVNVTYSSKDQARQALDKLNGFQLENFTLKVAYIPDEMAAQQNPLQQPRGRRGLGQRGSSRQGSPGSVSKQKPCDLP
notes: Contains the two RRMs and lacks the four KH domains; also called the RRM domains; not shown: N-terminal FLAG tag; C-terminal HA tag
Consider B2, for which the binding result in assay [2] is listed as “binds”.

B3: FLAG- and HA-tagged KOC1 (pCAGGS-n3FH-KOC1; NH2-terminal FLAG, COOH-terminal HA) (other)
chain: MNKLYIGNLSENAAPSDLESIFKDAKIPVSGPFLVKTGYAFVDCPDESWALKAIEALSGKIELHGKPIEVEHSVPKRQRIRKLQIRNIPPHLQWEVLDSLLVQYGVVESCEQVNTDSETAVVNVTYSSKDQARQALDKLNGFQLENFTLKVAYIPDEMAAQQNPLQQPRGRRGLGQRGSSRQGSPGSVSKQKPCDLPLRLLVPTQFVGAIIGKEGATIRNITKQTQSKIDVHRKENAGAAEKSITILSTPEGTSAACKSILEIMHKEAQDIKFTEEIPLKILAHNNFVGRLIGKEGRNLKKIEQDTDTKITISPLQELTLYNPERTITVKGNVETCAKAEEEIMKKIRESYENDIASMNLQAHLIPGLNLNALGLFPPTSGMPPPTSGPPSAMTPPYPQFEQSETETVHLFIPALSVGAIIGKQGQHIKQLSRFAGASIKIAPAEAPDAKVRMVIITGPPEAQFKAQGRIYGKIKEENFVSPKEEVKLEAHIRVPSFAAGRVIGKGGKTVNELQNLSSAEVVVPRDQTPDENDQVVVKITGHFYACQVAQRKIQEILTQVKQHQQQKALQSGPPQSRRK
notes: also called pCAGGS-FLAG-tagged-KOC1; full length KOC1 construct; not shown: N-terminal FLAG tag; C-terminal HA tag
Take B3: the binding result in assay [3] is “binds”.

B4: endogenous KOC1 (KH domain containing protein over-expressed in cancer) (other)
chain: MNKLYIGNLSENAAPSDLESIFKDAKIPVSGPFLVKTGYAFVDCPDESWALKAIEALSGKIELHGKPIEVEHSVPKRQRIRKLQIRNIPPHLQWEVLDSLLVQYGVVESCEQVNTDSETAVVNVTYSSKDQARQALDKLNGFQLENFTLKVAYIPDEMAAQQNPLQQPRGRRGLGQRGSSRQGSPGSVSKQKPCDLPLRLLVPTQFVGAIIGKEGATIRNITKQTQSKIDVHRKENAGAAEKSITILSTPEGTSAACKSILEIMHKEAQDIKFTEEIPLKILAHNNFVGRLIGKEGRNLKKIEQDTDTKITISPLQELTLYNPERTITVKGNVETCAKAEEEIMKKIRESYENDIASMNLQAHLIPGLNLNALGLFPPTSGMPPPTSGPPSAMTPPYPQFEQSETETVHLFIPALSVGAIIGKQGQHIKQLSRFAGASIKIAPAEAPDAKVRMVIITGPPEAQFKAQGRIYGKIKEENFVSPKEEVKLEAHIRVPSFAAGRVIGKGGKTVNELQNLSSAEVVVPRDQTPDENDQVVVKITGHFYACQVAQRKIQEILTQVKQHQQQKALQSGPPQSRRK
notes: Endogenous protein in cell extracts; GenBank NM-006547 printed for the gene; also called IMP-3
B4: the binding result in assay [4] is reported as “binds”.

B5: ECFP-fused KOC1 (ECFP-KOC1) (other)
chain: MNKLYIGNLSENAAPSDLESIFKDAKIPVSGPFLVKTGYAFVDCPDESWALKAIEALSGKIELHGKPIEVEHSVPKRQRIRKLQIRNIPPHLQWEVLDSLLVQYGVVESCEQVNTDSETAVVNVTYSSKDQARQALDKLNGFQLENFTLKVAYIPDEMAAQQNPLQQPRGRRGLGQRGSSRQGSPGSVSKQKPCDLPLRLLVPTQFVGAIIGKEGATIRNITKQTQSKIDVHRKENAGAAEKSITILSTPEGTSAACKSILEIMHKEAQDIKFTEEIPLKILAHNNFVGRLIGKEGRNLKKIEQDTDTKITISPLQELTLYNPERTITVKGNVETCAKAEEEIMKKIRESYENDIASMNLQAHLIPGLNLNALGLFPPTSGMPPPTSGPPSAMTPPYPQFEQSETETVHLFIPALSVGAIIGKQGQHIKQLSRFAGASIKIAPAEAPDAKVRMVIITGPPEAQFKAQGRIYGKIKEENFVSPKEEVKLEAHIRVPSFAAGRVIGKGGKTVNELQNLSSAEVVVPRDQTPDENDQVVVKITGHFYACQVAQRKIQEILTQVKQHQQQKALQSGPPQSRRK
notes: Expressed in COS-7 cells; not shown: ECFP from pECFP-N1 vector
As to B5, in assay [5], the binding result was “binds”.
For B6, the binding result in assay [6] is reported as “binds”.
